System: Escherichia coli TOP10
Experiment: shrunken log2 fold change of peptide-encoding DNA abundance (4.5 h post-induction vs induction); higher = less antimicrobial activity (less host growth inhibition)
Details: time post-induction: 4.5 h; library: site-saturation at positions 5, 18, 19, 20
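Note: peptides expressed intracellularly from a pBAD plasmid library in pooled LB shake-flask culture, induced with 0.3% L-arabinose, DNA abundance read by NGS, three biological replicates, DESeq2 with apeglm shrinkage.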

RRIRIRPPRLPRPRPRPREVPRP and RRIRSRPPRLPRPRPRPFHKPRP are within 0.2 log units of each other in “shrunken log2 fold change” value: -0.118 for the first, -0.0363 for the second.

RRIRKRPPRLPRPRPRPQMLPRP and RRIRVRPPRLPRPRPRPEIMPRP are within 0.2 log units of each other in “shrunken log2 fold change” value: -0.167 for the first, -0.194 for the second.

Compared with RRIRVRPPRLPRPRPRPSPKPRP, RRIRLRPPRLPRPRPRPMYFPRP is lower in “shrunken log2 fold change” value: 0.24 for the first, -0.252 for the second.

RRIRCRPPRLPRPRPRPLWHPRP and RRIRERPPRLPRPRPRPCPIPRP are within 0.2 log units of each other in “shrunken log2 fold change” value: -0.091 for the first, -0.246 for the second.

Compared with RRIRWRPPRLPRPRPRPPVHPRP, RRIRFRPPRLPRPRPRPNIDPRP is lower in “shrunken log2 fold change” value: -0.221 for the first, -0.463 for the second.

Going from RRIRFRPPRLPRPRPRPPGLPRP to RRIRDRPPRLPRPRPRPALVPRP, the “shrunken log2 fold change” value falls from 0.573 to 0.0217.

Compared with RRIRSRPPRLPRPRPRPMALPRP, RRIRARPPRLPRPRPRPKSIPRP is lower in “shrunken log2 fold change” value: 0.213 for the first, -0.078 for the second.

Going from RRIRVRPPRLPRPRPRPQMVPRP to RRIRDRPPRLPRPRPRPLWPPRP, the “shrunken log2 fold change” value rises from 0.0123 to 0.662.

RRIRLRPPRLPRPRPRPNDPPRP and RRIRIRPPRLPRPRPRPFKSPRP are within 0.2 log units of each other in “shrunken log2 fold change” value: -0.213 for the first, -0.023 for the second.

RRIRMRPPRLPRPRPRPLFTPRP and RRIRIRPPRLPRPRPRPINRPRP are within 0.2 log units of each other in “shrunken log2 fold change” value: -0.171 for the first, -0.312 for the second.

RRIRVRPPRLPRPRPRPACTPRP and RRIRQRPPRLPRPRPRPTIRPRP are within 0.2 log units of each other in “shrunken log2 fold change” value: -0.0478 for the first, -0.219 for the second.

RRIRYRPPRLPRPRPRPKDDPRP and RRIRCRPPRLPRPRPRPWAWPRP are within 0.2 log units of each other in “shrunken log2 fold change” value: -0.153 for the first, -0.105 for the second.

RRIRWRPPRLPRPRPRPSAFPRP and RRIRVRPPRLPRPRPRPNELPRP are within 0.2 log units of each other in “shrunken log2 fold change” value: 0.0981 for the first, -0.00739 for the second.

Going from RRIRMRPPRLPRPRPRPNPSPRP to RRIRCRPPRLPRPRPRPEGRPRP, the “shrunken log2 fold change” value falls from 0.758 to 0.0128.

RRIRKRPPRLPRPRPRPKFFPRP and RRIRMRPPRLPRPRPRPKFMPRP are within 0.2 log units of each other in “shrunken log2 fold change” value: 0.219 for the first, 0.0431 for the second.

Compared with RRIRNRPPRLPRPRPRPWSHPRP, RRIRPRPPRLPRPRPRPFNQPRP is lower in “shrunken log2 fold change” value: -0.17 for the first, -0.695 for the second.

RRIRVRPPRLPRPRPRPMCMPRP and RRIRKRPPRLPRPRPRPHSPPRP are within 0.2 log units of each other in “shrunken log2 fold change” value: 0.0119 for the first, 0.16 for the second.

First: RRIRRRPPRLPRPRPRPGCGPRP
Second: RRIRCRPPRLPRPRPRPESGPRP
The “shrunken log2 fold change” value of the first is higher: 0.657 for the first, 0.0145 for the second.

Compared with RRIRWRPPRLPRPRPRPYCWPRP, RRIRLRPPRLPRPRPRPKPKPRP is higher in “shrunken log2 fold change” value: -0.127 for the first, 0.607 for the second.

RRIRMRPPRLPRPRPRPMNWPRP and RRIRFRPPRLPRPRPRPMDFPRP are within 0.2 log units of each other in “shrunken log2 fold change” value: -0.117 for the first, -0.00674 for the second.

Compared with RRIRCRPPRLPRPRPRPYMIPRP, RRIRMRPPRLPRPRPRPHLPPRP is higher in “shrunken log2 fold change” value: -0.582 for the first, -0.00448 for the second.

Compared with RRIRMRPPRLPRPRPRPVADPRP, RRIRYRPPRLPRPRPRPAELPRP is lower in “shrunken log2 fold change” value: 3 for the first, -0.187 for the second.

Going from RRIRMRPPRLPRPRPRPSAVPRP to RRIRSRPPRLPRPRPRPTITPRP, the “shrunken log2 fold change” value falls from 1.16 to -0.229.

RRIRFRPPRLPRPRPRPDNCPRP and RRIRCRPPRLPRPRPRPMQSPRP are within 0.2 log units of each other in “shrunken log2 fold change” value: -0.0284 for the first, -0.0765 for the second.

Compared with RRIRWRPPRLPRPRPRPVKNPRP, RRIRNRPPRLPRPRPRPADPPRP is lower in “shrunken log2 fold change” value: 0.238 for the first, -0.0809 for the second.

Compared with RRIRWRPPRLPRPRPRPSVKPRP, RRIRIRPPRLPRPRPRPWIAPRP is lower in “shrunken log2 fold change” value: -0.159 for the first, -0.717 for the second.

RRIRDRPPRLPRPRPRPREMPRP and RRIRMRPPRLPRPRPRPHVHPRP are within 0.2 log units of each other in “shrunken log2 fold change” value: 0.00815 for the first, 0.0308 for the second.

First: RRIRMRPPRLPRPRPRPCSIPRP
Second: RRIRERPPRLPRPRPRPPTKPRP
The “shrunken log2 fold change” value of the first is lower: -0.0306 for the first, 0.774 for the second.

First: RRIRKRPPRLPRPRPRPKNCPRP
Second: RRIRQRPPRLPRPRPRPDRIPRP
The “shrunken log2 fold change” value of the first is higher: 0.0646 for the first, -0.185 for the second.

First: RRIRLRPPRLPRPRPRPVQCPRP
Second: RRIRCRPPRLPRPRPRPHVRPRP
The “shrunken log2 fold change” value of the first is higher: 0.079 for the first, -0.4 for the second.

RRIRQRPPRLPRPRPRPFWCPRP and RRIRMRPPRLPRPRPRPVDEPRP are within 0.2 log units of each other in “shrunken log2 fold change” value: 0.0825 for the first, -0.00101 for the second.

Compared with RRIRKRPPRLPRPRPRPVVVPRP, RRIRFRPPRLPRPRPRPNGLPRP is lower in “shrunken log2 fold change” value: 0.212 for the first, -0.0551 for the second.

Going from RRIRARPPRLPRPRPRPCNDPRP to RRIRWRPPRLPRPRPRPGDMPRP, the “shrunken log2 fold change” value rises from -0.0678 to 0.344.

Compared with RRIRERPPRLPRPRPRPCYSPRP, RRIRDRPPRLPRPRPRPDQSPRP is higher in “shrunken log2 fold change” value: -0.704 for the first, 0.0019 for the second.

First: RRIRARPPRLPRPRPRPQGAPRP
Second: RRIRGRPPRLPRPRPRPLLEPRP
The “shrunken log2 fold change” value of the first is lower: 0.191 for the first, 1.39 for the second.

RRIRNRPPRLPRPRPRPDCNPRP and RRIRNRPPRLPRPRPRPLVTPRP are within 0.2 log units of each other in “shrunken log2 fold change” value: -0.0899 for the first, 0.0322 for the second.

Compared with RRIRDRPPRLPRPRPRPMSCPRP, RRIRRRPPRLPRPRPRPNIMPRP is lower in “shrunken log2 fold change” value: -0.00207 for the first, -0.359 for the second.

With RRIRKRPPRLPRPRPRPPWCPRP the “shrunken log2 fold change” value was 0.401.

From the supplement of paper PMC9112550, “Optimization of the antimicrobial peptide Bac7 by deep mutational scanning” (BMC Biology, 2022)
